Measured values as given in patent US8563513 (VAN ANDEL RESEARCH INSTITUTE, dated 2013).
Where no end group is shown, it is not given here.

Assays:
[1] = molecular target: T1, PTH1R in cell membranes, G protein-uncoupled conformation (R0) (UniProt Q03431 27-593, limits assumed); test: competition binding, PTH1R in cell membranes, R0 state (GTPγS), n = 3
T1 construct: whole, on cells; Cell membranes, not intact cells; R0 state studied by including GTPγS in the reactions; also called G protein-uncoupled receptor
T1 sequence (looked up): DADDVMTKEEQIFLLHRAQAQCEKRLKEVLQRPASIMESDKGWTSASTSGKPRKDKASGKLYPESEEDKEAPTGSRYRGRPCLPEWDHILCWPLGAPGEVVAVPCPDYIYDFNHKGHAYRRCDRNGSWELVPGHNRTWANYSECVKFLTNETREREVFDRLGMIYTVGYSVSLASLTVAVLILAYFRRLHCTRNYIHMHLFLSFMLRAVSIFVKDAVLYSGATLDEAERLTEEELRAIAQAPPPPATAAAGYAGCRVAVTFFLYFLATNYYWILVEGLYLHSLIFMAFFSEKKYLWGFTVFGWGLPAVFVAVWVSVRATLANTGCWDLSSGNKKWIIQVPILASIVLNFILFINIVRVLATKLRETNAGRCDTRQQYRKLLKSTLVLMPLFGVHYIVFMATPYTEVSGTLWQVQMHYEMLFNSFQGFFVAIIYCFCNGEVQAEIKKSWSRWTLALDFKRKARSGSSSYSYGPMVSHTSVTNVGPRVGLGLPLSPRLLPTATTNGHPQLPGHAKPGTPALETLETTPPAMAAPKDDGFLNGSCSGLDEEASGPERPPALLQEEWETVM

[2] = molecular target: T2, PTH1R in cell membranes, G protein-coupled conformation (RG) (UniProt Q03431 27-593); test: competition binding, PTH1R in cell membranes, RG state (dominant negative Gαs), n = 3
T2 construct: whole, on cells; Cell membranes, not intact cells; RG state studied by co-expressing the receptor with dominant negative Gαs; also called G protein-coupled receptor

[3] = molecular target: T1, PTH1R in cell membranes, G …; test: ratio of IC50 at R0 to IC50 at RG, cell membranes
[4] = molecular target: T3, hPTH1R transiently expressed in COS-1 cells (human, UniProt Q03431 27-593); test: cell-based or functional assay
T3 sequence (looked up): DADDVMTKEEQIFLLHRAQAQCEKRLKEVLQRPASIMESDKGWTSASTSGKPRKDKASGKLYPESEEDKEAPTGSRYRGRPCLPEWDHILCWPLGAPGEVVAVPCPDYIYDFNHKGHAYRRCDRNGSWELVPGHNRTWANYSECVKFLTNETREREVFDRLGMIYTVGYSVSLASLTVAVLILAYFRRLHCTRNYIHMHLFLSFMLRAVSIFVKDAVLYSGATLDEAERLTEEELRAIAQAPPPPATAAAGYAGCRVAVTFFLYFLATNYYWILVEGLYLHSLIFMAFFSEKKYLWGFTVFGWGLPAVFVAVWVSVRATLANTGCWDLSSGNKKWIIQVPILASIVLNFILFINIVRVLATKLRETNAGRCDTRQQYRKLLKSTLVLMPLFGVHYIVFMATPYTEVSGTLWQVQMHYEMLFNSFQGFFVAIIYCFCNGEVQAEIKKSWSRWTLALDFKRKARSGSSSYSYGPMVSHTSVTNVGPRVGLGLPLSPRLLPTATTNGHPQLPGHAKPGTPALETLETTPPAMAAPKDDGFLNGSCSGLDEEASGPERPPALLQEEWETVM

[5] = molecular target: T4, MBP-PTH1R ECD-(His)6 fusion protein (UniProt Q03431 29-187); test: AlphaScreen competition; competitor titrated against biotin-PTH(7-34)NH2 (23 nM) on MBP-PTH1R ECD (23 nM) [panel B]
T4 construct: range 29-187; Expressed in E. coli, disulfide shuffled in vitro; also called MBP-PTH1R ECD-H6; MBP-PTH1R ECD fusion protein
T4 sequence: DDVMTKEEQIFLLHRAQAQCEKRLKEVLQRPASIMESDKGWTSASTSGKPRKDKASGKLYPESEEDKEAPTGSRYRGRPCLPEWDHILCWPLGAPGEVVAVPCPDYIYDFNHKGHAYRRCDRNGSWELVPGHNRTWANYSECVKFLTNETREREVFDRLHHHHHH
Protocol: (§1) ECD-peptide binding assays. The binding of peptides to the MBP-PTH1R ECD-H6 fusion protein was assessed using an AlphaScreen assay (Perkin-Elmer). […] The pre-coupling reactions were mixed, un-labeled competitor peptides were added as indicated, and the reactions were incubated 4 to 5 hrs to reach equilibrium. Photon counts were recorded in 384-well optiplates using an Envision 2104 plate reader (Perkin-Elmer). Prism 5.0 software (GraphPad Software, San Diego) was used to fit the data to a fixed-slope dose-response inhibition equation for determination of IC50 values. Real-time analysis of the binding of peptides to the isolated PTH1R ECD using the Octet Red system (ForteBio) was performed as described in below.

[6] = molecular target: T4, MBP-PTH1R ECD-(His)6 fusion protein; test: AlphaScreen competition against biotin-PTH(7-34)NH2 (23 nM) for MBP-PTH1R ECD-H6 (23 nM)
Protocol: as §1

[7] = molecular target: T4, MBP-PTH1R ECD-(His)6 fusion protein; test: AlphaScreen competition; competitor titrated against biotin-PTH(7-34)NH2 (23 nM) on MBP-PTH1R ECD (23 nM) [panel A]
Protocol: as §1

| Binder | IC50 [1] [nM] | IC50 Log M [1] [Log M] | IC50 [2] [nM] | IC50 Log M [2] [Log M] | RO/RG [3] [fold] | EC50, cAMP accumulation dose-response [4] [nM] | maximal cAMP level relative to wt peptide [4] [%] | IC50 (read off the curve) [5] [nM] | IC50 [6] [nM] | IC50 (read off the curve) [7] [nM] |
| --- | --- | --- | --- | --- | --- | --- | --- | --- | --- | --- |
| SVSEIQLMHNLGKHLNSMERVEWLRKLLQDIHNF-NH2 [PTH(1-34)NH2 [K27L/V31I]] | 25 | -7.6 | 0.68 | -9.3 | 36.8 |  |  |  |  |  |
| SVSEIQLMHNLGKHLNSMERVEWLRKKIQDIHNF-NH2 [PTH(1-34)NH2 [L28I/V31I]] | 42 | -7.4 | 0.31 | -9.6 | 135 |  |  |  |  |  |
| SVSEIQLMHNLGKHLNSMERVEWLRKKIQDVHNF-NH2 [PTH(1-34)NH2 [L28I]] | 4.5 | -8.4 | 0.1 | -10 | 45 |  |  |  |  |  |
| SVSEIQLMHNLGKHLNSMERVEWLRKKLQDIHNF-NH2 [PTH(1-34)NH2 [V31I]] | 34 | -7.5 | 0.31 | -9.6 | 110 |  |  |  |  |  |
| SVSEIQLMHNLGKHLNSMERVEFLRKLIQDIHNF-NH2 [PTH(1-34)NH2 [W23F/K27L/L28I/V31I]] | 53 | -7.3 | 0.78 | -9.2 | 68 |  |  |  |  |  |
| SVSEIQLMHNLGKHLNSMERVEFLRKLLQDVHNF-NH2 [PTH(1-34)NH2 [W23F/K27L]] | 8.7 | -8.1 | 0.33 | -9.6 | 26.4 |  |  |  |  |  |
| SVSEIQLMHNLGKHLNSMERVEFLRKKIQDVHNF-NH2 [PTH(1-34)NH2 [W23F/L28I]] | 38 | -7.4 | 0.2 | -9.7 | 190 |  |  |  |  |  |
| SVSEIQLMHNLGKHLNSMERVEFLRKKLQDVHNF-NH2 [PTH(1-34)NH2 [W23F]] | 13.5 | -7.9 | 0.23 | -9.7 | 59 |  |  |  |  |  |
| SVSEIQLMHNLGKHLNSMERVEFLRKKLQDIHNF-NH2 (also called PTH(W23′F/V31′I)) [PTH(1-34)NH2 [W23′F/V31′I]] | 81 | -7.1 | 0.21 | -9.7 | 386 | 0.0415 | ~80 |  |  |  |
| SVSEIQLMHNLGKHLNSMERVEWLRKLLQDVHNF-NH2 (also called 07-12-12-07-SBSL) [PTH(1-34)[K27L]NH2] | 6.4 | -8.2 | 0.54 | -9.3 | 11.9 |  |  |  |  |  |
| GKSIQDLRRRFFLHHLIAEIHTA-NH2 (also called C-terminally amidated 12-34 fragment of PTHrP) [PTHrP(12-34)NH2] |  |  |  |  |  |  |  | ~1000 | ~2000 |  |
| GKHLNSMERVEWLRKKLQDVHNF-NH2 [PTH(12-34)NH2] |  |  |  |  |  |  |  |  | ~1000 | ~800 |
| GKSIQDLRRRFFLHHLIAEIHTA-OH (Free C-terminal carboxylic acid) [PTHrP(12-34)OH] |  |  |  |  |  |  |  | ~2000 | ~2000 |  |
| AVSEHQLLHDKGKSIQDLRRRFWLHHKLAEVHTA-NH2 [PTHrP(1-34)NH2 [F23′W/L27′K/I28′L/I31′V]] | 41 | -7.4 | 0.07 | -10.1 | 586 |  |  |  |  |  |
